In article PMC8124269, “Antiviral Properties of the NSAID Drug Naproxen Targeting the Nucleoprotein of SARS-CoV-2 Coronavirus”:

Biological target: SARS-CoV-2 N NTD (batch 2, monomer) (SARS-CoV-2, UniProt P0DTC9 50-173)
Assay: DLS; Anisotropy: 10 mM Tris pH 8.0, 50 mM NaCl, 2 mM beta-mercaptoethanol, thermostated (temperature not stated); DLS: 20 mM Tris pH 7.9, 100 mM NaCl, 20 C
Settings: protein: recombinant; tags: N-terminal His6 (pET-28a); single strand

## ATATATATCTATGTCCATATATATATAAAACACAGCGTGTGTGTGTAA (ssDNA) [48-mer ssDNA]
  binding result: binds
